Measurements as given in the supplement of paper PMC10567573.

B1: DVL3 (parent)
chain: FPELGYSYGGGSASSQHSEGSRSS

Variants of: B1
Experiment: protein stability index of a GFP-peptide fusion (GPS, HEK-293T) (PSI 1-6); higher = more stable
Settings: c terminus: a fixed tail appended
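Further: lentivirally expressed fusions sorted by FACS into six bins by GFP to DsRed ratio, PSI derived from sequencing read proportions per bin multiplied by bin number.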

Protein stability index of substitutions, site by site:
S24: L 2.94; Y 2.58; F 2.57; T 2.92; C 2.99; A 3.5; K 3.42; E 4.02; M 2.97; I 2.37; H 3; G 3.01; R 3.69; D 3.24
G11: K 2.7; N 2.98; T 2.52; S 3.03; Q 3.16; V 2.81; W 2.11; H 3.29; E 3.22; D 3.35; F 2.28; M 2.73; L 2.57; I 2.22
G9: R 2.91; S 3.27; I 2.22; M 2.49; Y 2.11; D 4.05; V 2.4; T 3.32; H 2.93; L 1.6; F 2.43; C 2.3; E 4.39; Q 2.8; A 2.39; K 3.18
A13: E 3.47; Y 2.49; H 2.73; F 2.31; M 2.98; L 3.18; S 2.9; D 2.77; I 2.45; Q 2.8; G 3.04; K 2.63; C 2.22; P 2.94; W 1.91; T 3.31
G20: E 3.52; L 2.5; P 2.94; S 3.18; Q 3.27; R 3.15; T 3.42; W 2.32; F 2.63; V 2.75; D 3.7; C 2.99; A 2.52; K 3.06
S12: G 3.14; E 3.56; D 3.2; Y 2.41; H 2.9; F 2.65; T 3.29; A 2.58; P 2.92; M 2.9; W 2.22; I 2.64; N 3.17; V 3
Q16: V 2.7; E 3.22; S 3.09; P 3.31; H 3.12; K 2.95; N 3.28; L 2.83; G 2.88; R 2.41; C 2.81; W 2.27; D 3.58; Y 2.69; I 3.05
P2: D 5.09; M 3.96; W 3.2; R 4.09; A 2.87; L 2.86; G 3.12; F 3.37; T 2.38; K 4.49; N 4.26; I 2.07; V 4.01; Q 3.02
S7: K 3.21; H 2.4; R 2.18; W 1.74; I 2.04; E 3.68; F 2.72; M 2.65; C 1.84; L 2.26
S23: W 2.59; I 3.34; M 2.33; V 2.63; D 3.17; T 2.46; Q 3.24; Y 2.49; C 3.38; F 2.39; L 2.49; R 3.05; E 2.9
S18: C 2.9; D 3.7; V 3.36; F 2.77; N 2.89; W 2.2; H 2.95; A 3.19; T 3.3; P 3.24; Q 3.15; G 3.12; Y 2.9
S21: Q 3.41; P 3.43; R 2.62; V 3.07; M 2.78; D 2.87; F 2.56; L 2.61; K 3.17; N 2.91; G 2.71; Y 2.88; H 2.94
G10: A 3.06; W 1.89; L 2.62; Y 2.45; M 2.15; C 2.2; E 3.95; Q 2.84; K 3.61; P 3.3
E19: W 1.81; N 2.59; D 3.64; H 2.38; C 2.39; A 2.99; M 3.12; L 2.06; F 3.64; V 2.52; G 2.87; I 2.94; P 3.15; Q 2.66; S 3.16; T 3.24; R 2.85; Y 2.41
E3: W 2.99; I 3.59; F 2.93; H 2.58; L 3.87; V 3.75; C 2.76; T 2.19; Q 3.16; D 2.67; R 3.41; P 2.96; M 3.5; G 2.12
F1: A 5.09; G 4.62; P 5.34; K 4.89; T 4.95; R 4.86; Y 4; N 5.32; L 4.22; S 4.99; D 5.2; V 4.03; C 4.68; W 4.25; I 5.21; M 4.38; H 4.96
S14: G 3.44; W 2.47; C 2.71; Q 2.99; T 2.77; R 3.25; E 3.41; Y 2.37; L 2.73; M 2.59; D 3.61; P 3.24; H 3.17; A 3.45
S15: Q 3.18; F 2.71; P 3.56; T 2.65; W 1.75; G 2.8; Y 2.73; R 2.92; D 2.99; L 3.16; I 2.9; M 2.74; A 3.59; H 3.2; C 2.19
H17: L 2.77; Y 2.45; P 3.35; Q 2.83; D 3.08; K 3.12; I 2.74; G 3.07; M 2.62; C 3.1; R 2.61; T 3.12; E 3.29
Y8: S 4.09; A 3.72; M 3.6; C 2.74; V 3.45; R 3.2; G 3.8; F 2.59; H 3.43; E 4.71; L 3.09; P 3.97; K 2.95
L4: Q 3.35; A 3.47; V 3.36; P 3.24; R 2.84; C 2.82; G 1.8; K 2.98; S 2.62; M 2.09; E 4.31; T 3.77; Y 2.57; N 2.35; F 3.16
R22: G 3.53; E 3.71; Y 3.21; T 2.6; K 3.15; F 2.79; I 3.43; A 3.41; V 3.18; N 3.56; M 3.4; S 3.66; L 2.53
Y6: M 3.71; T 3.7; C 3.4; K 3.37; I 3.77; L 3.53; S 3.98; N 4.58; W 1.66; H 3.77; F 2.32; E 4.76; V 3.75
G5: A 2.91; E 4.81; K 3.98; S 3.52; M 3.31; F 2.33; C 3.52; D 4.59; Q 4.39; Y 2.5; V 3.64; W 1.61; P 2.58
